Assay results published in patent US12630620 (dated 2026).
Like-named read-outs stand apart in the source and are kept apart here. Blank lines part the entries; values can stand above or below the binder they belong to.

What was measured:
[1] = biological target: T1, commercial GDF15 recombinant protein (R&D, 9279-GD) (UniProt Q99988 197-308); assay: SPR
T1 chain: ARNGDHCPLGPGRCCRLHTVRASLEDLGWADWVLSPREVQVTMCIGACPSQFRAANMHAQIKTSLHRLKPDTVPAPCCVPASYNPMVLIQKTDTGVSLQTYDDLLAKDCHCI

[2] = biological target: T1, commercial GDF15 recombinant protein …; assay: SPR

Kd [1]: 71.4 nM
B1: anti-GDF15 neutralizing monoclonal antibody G1 (antibody, V domains shown)
VH: DVQLQESGPGLVKPSQSLSLTCTVTGYSITSAYAWNWIRQFPGNKLEWMGYISYSGSTSYNPSLKSRISITRDTSKNQFFLQFNSVTTEDTATYYCARGGDAEDYWGQGTTLTVSS
VL: DIQMTQSPASLSVSVGETVTITCRASENIYSNLAWFQQKQGKSPQLLVYVATNLVDGVPSRFSGSGSGTQYSLKINSLQSEDFGTYYCQHFWGTPWTFGGGTKLEIK

Kd [2]: 572 nM
B2: anti-GDF15 neutralizing monoclonal antibody G2 (antibody, V domains shown)
VH: QVQLQQSGAELARPGASVKLSCKASGYTFTDYYINWVKQRTGQGLEWIGEIYPGSGNTYYNEKFKGKATLTADKSSSTAYMQLSSLTSEDSAVYFCARVRALLRPLAMDYWGQGTSVTVSS
VL: QIVLSQSPAILSASPGEKVTMTCRASSSVSYMHWYQQKPGSSPKPWIYATSNLASGVPARFSGSGSGTSYSLTISRVEAEDAATYYCQQWSSNPPFTFGSGTKLEIK
